B1: N-ethylmaleimide sensitive factor (NSF), wild-type hexamer, P18708 1-744 (enzyme)
chain: MAGRSMQAARCPTDELSLSNCAVVSEKDYQSGQHVIVRTSPNHKYIFTLRTHPSVVPGSVAFSLPQRKWAGLSIGQEIEVALYSFDKAKQCIGTMTIEIDFLQKKNIDSNPYDTDKMAAEFIQQFNNQAFSVGQQLVFSFNDKLFGLLVKDIEAMDPSILKGEPASGKRQKIEVGLVVGNSQVAFEKAENSSLNLIGKAKTKENRQSIINPDWNFEKMGIGGLDKEFSDIFRRAFASRVFPPEIVEQMGCKHVKGILLYGPPGCGKTLLARQIGKMLNAREPKVVNGPEILNKYVGESEANIRKLFADAEEEQRRLGANSGLHIIIFDEIDAICKQRGSMAGSTGVHDTVVNQLLSKIDGVEQLNNILVIGMTNRPDLIDEALLRPGRLEVKMEIGLPDEKGRLQILHIHTARMRGHQLLSADVDIKELAVETKNFSGAELEGLVRAAQSTAMNRHIKASTKVEVDMEKAESLQVTRGDFLASLENDIKPAFGTNQEDYASYIMNGIIKWGDPVTRVLDDGELLVQQTKNSDRTPLVSVLLEGPPHSGKTALAAKIAEESNFPFIKICSPDKMIGFSETAKCQAMKKIFDDAYKSQLSCVVVDDIERLLDYVPIGPRFSNLVLQALLVLLKKAPPQGRKLLIIGTTSRKDVLQEMEMLNAFSTTIHVPNIATGEQLLEALELLGNFKDKERTTIAQQVKGKKVWIGIKKLLMLIEMSLQMDPEYRVRKFLALLREEGASPLDFD
B2: free NSF (NSF hexamer) (Cricetulus griseus) (protein)
chain: B1 chain
notes: N-terminal His-tag cut by thrombin, pET28a

Experiments:
[1] = target: SNARE–αSNAP complex on vesicles (rat | bovine), P60881
[2] = substrate: Nc1ncnc2c1ncn2[C@@H]1O[C@H](COP(=O)(O)OP(=O)(O)OP(=O)(O)O)[C@@H](O)[C@H]1O; assay: ATPase titration, phosphate release by MESG/PNP (ELIPA kit), Hill fit; format: biochemical, Cricetulus griseus; settings: Hill coefficient 0.58 ± 0.09, 5 mM MgCl2, 50 mM HEPES pH 7.4, 50 mM NaCl, 37 °C

Row | Binder | rate of ATP hydrolysis of WT NSF hexamers with soluble SNARE complex (300 nM) and αSNAP (1 μM) against free NSF [1] [fold] | K0.5 [2] [µM]
1 | B1 | 24 | 
2 | B2 |  | 9 ± 2

From publication PMC8163800, “Extreme parsimony in ATP consumption by 20S complexes in the global disassembly of single SNARE complexes” (Nature Communications, 2021)
